From the Human Domainome abundance scans (Beltran et al. 2025)
± gives the uncertainty stated by the source.

B1: FERM and PDZ domain-containing protein 4, residues 75 to 154; numbered along this chain, Q14CM0 (parent)
chain: APRKVEMRRDPVLGFGFVAGSEKPVVVRSVTPGGPSEGKLIPGDQIVMINDEPVSAAPRERVIDLVRSCKESILLTVIQP

Variants of: B1
Assay: abundance fitness (aPCA) (normalised: wild type 0, dead -1); higher = more abundant; growth selection in yeast, the domain comes from the species named
Settings: Homo sapiens

Row | Variant | abundance fitness
1 | V54I | -0.117 ± 0.03
2 | V54K | -1.21 ± 0.11
3 | V54G | -0.993 ± 0.066
4 | V54N | -0.945 ± 0.072
5 | V54P | -0.994 ± 0.06
6 | V54H | -0.942 ± 0.066
7 | V54Q | -0.647 ± 0.044
8 | V54F | -0.692 ± 0.044
9 | V54T | -0.13 ± 0.028
10 | V54D | -0.928 ± 0.079
11 | V54A | -0.271 ± 0.031
12 | V54E | -0.771 ± 0.073
13 | V54S | -0.627 ± 0.031
14 | V54W | -1.07 ± 0.11
15 | V54L | -0.207 ± 0.025
16 | V54C | -0.03 ± 0.034
17 | V54Y | -0.911 ± 0.058
18 | P53L | 0.004 ± 0.024
19 | P53N | -0.005 ± 0.03
20 | P53K | -0.003 ± 0.03
21 | P53S | -0.002 ± 0.024

Row | Variant | abundance fitness
22 | P53D | 0.034 ± 0.037
23 | P53H | -0.03 ± 0.028
24 | P53T | -0.043 ± 0.026
25 | P53I | 0.116 ± 0.029
26 | P53R | -0.038 ± 0.025
27 | P53G | -0.079 ± 0.029
28 | P53M | -0.015 ± 0.031
29 | P53Q | -0.035 ± 0.034
30 | P53A | -0.037 ± 0.028
31 | P53W | -0.094 ± 0.032
32 | P53C | -0.029 ± 0.031
33 | P53V | -0.012 ± 0.028
34 | P53F | -0.124 ± 0.031
35 | P53Y | -0.078 ± 0.028
36 | P53E | 0.007 ± 0.036
37 | D51A | -0.087 ± 0.024
38 | D51W | -0.234 ± 0.026
39 | D51Y | -0.145 ± 0.044
40 | D51R | -0.069 ± 0.021
41 | D51H | 0.01 ± 0.043
42 | D51M | -0.077 ± 0.03

Row | Variant | abundance fitness
43 | D51F | -0.194 ± 0.044
44 | D51N | -0.047 ± 0.035
45 | D51E | -0.016 ± 0.028
46 | D51Q | -0.027 ± 0.028
47 | D51V | -0.385 ± 0.025
48 | D51C | -0.135 ± 0.034
49 | D51T | -0.079 ± 0.028
50 | D51K | -0.044 ± 0.035
51 | D51I | -0.511 ± 0.057
52 | D51L | -0.168 ± 0.024
53 | D51P | -0.821 ± 0.051
54 | D51S | -0.039 ± 0.024
55 | P58W | -0.474 ± 0.029
56 | P58C | -0.043 ± 0.029
57 | P58L | -0.24 ± 0.024
58 | P58N | -0.04 ± 0.037
59 | P58R | -0.063 ± 0.02
60 | P58E | -0.06 ± 0.026
61 | P58I | -0.29 ± 0.04
62 | P58M | -0.217 ± 0.03
63 | P58F | -0.33 ± 0.039

Row | Variant | abundance fitness
64 | P58G | -0.014 ± 0.02
65 | P58K | -0.027 ± 0.032
66 | P58T | -0.029 ± 0.027
67 | P58A | -0.067 ± 0.023
68 | P58Y | -0.25 ± 0.043
69 | P58V | -0.167 ± 0.023
70 | P58S | 0.017 ± 0.025
71 | P58H | -0.09 ± 0.035
72 | P58Q | -0.091 ± 0.029
73 | P58D | -0.061 ± 0.032
74 | N50F | -0.145 ± 0.037
75 | N50S | -0.185 ± 0.024
76 | N50E | -0.054 ± 0.026
77 | N50Q | -0.094 ± 0.028
78 | N50I | -0.607 ± 0.066
79 | N50L | -0.361 ± 0.023
80 | N50P | -0.919 ± 0.05
81 | N50V | -0.695 ± 0.029
82 | N50H | -0.11 ± 0.038
83 | N50G | 0 ± 0.02
